Assay results as given in the supplement of paper PMC12764529.
± gives the half width of the 95% confidence interval.

Columns and labels:
[1] = folding stability dG unfold from trypsin proteolysis; higher = more stable
Procedure, shortened: (§1)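 Designed mini-proteins (under 80 residues, no cysteine) in a PA-tagged cDNA display construct were digested with trypsin and chymotrypsin. Each protease was used at 11 concentrations (threefold dilutions) plus a no-protease condition, followed by sequencing. K50 was inferred by Bayesian fitting of sequencing counts, and unfolding free energy was derived against a sequence-predicted unfolded-state K50 and a shared folded-state K50, per protease or combined. Only designs with AlphaFold2 dimer inter-PAE above 15 were kept.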

[2] = folding stability dG unfold from chymotrypsin proteolysis; higher = more stable
Procedure, shortened: as §1

[3] = folding stability dG unfold (combined trypsin and chymotrypsin); higher = more stable
Procedure, shortened: as §1

Sequence | folding stability dG unfold [1] [kcal/mol] | folding stability dG unfold [2] [kcal/mol] | folding stability dG unfold [3] [kcal/mol]
SAGGSAGGSAMKIEIEKTEDTIKVRIKRKDGKEIEIEIPKENMSLEEIKKLAEELGIEKVEPSAGGSAGGSA [r18_83_TrROS_Hall] | 1.49 ± 0.17 | 1.63 ± 0.073 | 1.6 ± 0.17
SAGGSAGGSAMKIPPGETVEEVELSFLPNGEIILKKTTITKKGNTTTVETEVKIVKPDVPLSAGGSAGGSAG [r3_49_JUSTAS] | 0.877 ± 0.027 | 0.701 ± 0.067 | 0.836 ± 0.1
SAGGSAGGSAMKKLEYTIPVPPGTLSPEKVKELFKKKYPEYENKEIKVEFSPDGTVKITVIESAGGSAGGSA [r18_65_JUSTAS] | 2.38 ± 0.051 | 3.17 ± 0.037 | 2.92 ± 0.066
SAGGSAGGSAMKRVTLTFPSTGKTLTFDFTTEEDIEAAIKAALGPEVDPAKVTVTVLPPGAASAGGSAGGSA [r18_350_JUSTAS] | 1.04 ± 0.054 | 2.62 ± 0.054 | 2.12 ± 0.3
SAGGSAGGSAMKTITLKDEKGNPLTAEVEKLPNGTIKITITKPGGEKTTYTIPPGEKITLPVSAGGSAGGSA [r18_115_JUSTAS] | 2.34 ± 0.16 | 2.98 ± 0.05 | 2.77 ± 0.14
SAGGSAGGSAMKVTVEEEELEVEPGETVKIKIRLPNGEEREFSLEDLKKLPPGEAEVEIERVSAGGSAGGSA [r18_394_TrROS_Hall] | 0.583 ± 0.076 | 0.729 ± 0.13 | 0.785 ± 0.18
SAGGSAGGSAMKVVSVEAAPGQTVTVRVLVEDPETQELYELEVTVTVTAPEPVTVELPPEASAGGSAGGSAG [r3_271_TrROS_Hall] | 1.89 ± 0.15 | 2.47 ± 0.082 | 2.03 ± 0.23
SAGGSAGGSAMLLPSEEEAEKAAAELRAKTGWRVTVEKVGTGEDGTVVYRLTVVPPDLPLESAGGSAGGSAG [r3_59_JUSTAS] | 2.84 ± 0.048 | 3.234 ± 0.019 | 3.12 ± 0.06
SAGGSAGGSAMLVALVRVPGTDKPVVARLPREIGREAAEELLREAFPDAEVLEIVEVPEEELSAGGSAGGSA [r18_242_TrMRF] | 0.447 ± 0.031 | 1.712 ± 0.012 | 1.42 ± 0.031
SAGGSAGGSAMPVIELTIKVKTKEEAKKAAEELAKKLEEEFGLKVEVEYDEETKEVKVKIYPSAGGSAGGSA [r18_368_TrROS_Hall] | 2.25 ± 0.12 | 1.79 ± 0.068 | 2.07 ± 0.089
SAGGSAGGSAMQPIRIKITLYNPDNGDTRTYTVEVPDPNMSLDAIAKQLPPGYRIKKVSIMSAGGSAGGSAG [r3_80_TrROS] | 3.38 ± 0.13 | 3.815 ± 0.033 | 3.68 ± 0.13
SAGGSAGGSAMQRVEIYFPGLKKVFTKPFKSLEEVEEAVKELLGPEYNPEKVEIKILPENAESAGGSAGGSA [r18_350_TrMRF] | 0.912 ± 0.054 | 1.5 ± 0.14 | 1.27 ± 0.17
SAGGSAGGSAMRPVSFTLVSTETAPNGVKVTKYVLTEPTGPAREYTSTNLLVEGSSLTDLSSAGGSAGGSAG [r3_261_JUSTAS] | 0.0443 ± 0.084 | 0.239 ± 0.1 | 0.202 ± 0.087
SAGGSAGGSAMTFTVNSEEEVEKLKKLGGVTKTSEEPGKVTLSAPNLPPELQEKIKEVIQKSAGGSAGGSAG [r3_398_JUSTAS] | -0.548 ± 0.2 | 0.434 ± 0.27 | -0.111 ± 0.26
SAGGSAGGSAMTIEELAKKGYEIRIVGPDGKVRTFKVGESLEEIAEKLGLAPGAKIEIRKVSAGGSAGGSAG [r3_216_TrROS_Hall] | 1.48 ± 0.024 | 2.07 ± 0.027 | 1.88 ± 0.049
SAGGSAGGSAMTIEQIANELAKKLGVDIKVVVTYENGEKKEYRPDELKNIPPGPFTVEFYTDSAGGSAGGSA [r18_394_TrMRF] | 3.01 ± 0.096 | 3.71 ± 0.1 | 3.51 ± 0.15
SAGGSAGGSAMTIEVTVPPEVPEEEAAERVARALRELFPIPEIKVSVERRPDGIIKVTVEGGSAGGSAGGSA [r18_1_TrMRF] | 0.81 ± 0.04 | 0.902 ± 0.052 | 0.888 ± 0.1
SAGGSAGGSAMTITITGLSPEQIEEAAKALGATVTFDKETKTVTITVSPEQLEKLKELLEKSAGGSAGGSAG [r3_354_TrROS_Hall] | 3.51 ± 0.14 | 3.58 ± 0.12 | 3.58 ± 0.18
SAGGSAGGSAMTITKTITFSSKEEAEKFVKELEEKGNITITMTYEKLPSGKYKVTVTITKPSAGGSAGGSAG [r3_273_JUSTAS] | 3.62 ± 0.21 | 3.71 ± 0.049 | 3.68 ± 0.2
SAGGSAGGSAMTIVVKSEEEAKKLAELLNAEVVEEKDGYLTIKLEGMSEEERKKILELLKKSAGGSAGGSAG [r3_398_TrROS_Hall] | 1.96 ± 0.13 | 3.03 ± 0.17 | 2.71 ± 0.11
SAGGSAGGSAMTLKEKAEAIEKEKGVKITVTVTYPDGTVRTLTPEELSSIPPGPYTLSFTTPSAGGSAGGSA [r18_394_JUSTAS] | 1.73 ± 0.023 | 1.44 ± 0.16 | 1.67 ± 0.099

Sequence | folding stability dG unfold [1] [kcal/mol] | folding stability dG unfold [2] [kcal/mol] | folding stability dG unfold [3] [kcal/mol]
SAGGSAGGSAMTPPEELKEKIAAEVSPDTTVTETFPEEPLVVKITRNPSGTITVEVVSPEELSAGGSAGGSA [r18_61_JUSTAS] | -0.418 ± 0.11 | 0.906 ± 0.049 | 0.546 ± 0.088
SAGGSAGGSAMTPVTTTQTISFPGSEEEARAEAERIREELEAKGLTVSFEFLPGGTLKITVASAGGSAGGSA [r18_262_JUSTAS] | 3.18 ± 0.064 | 2.398 ± 0.021 | 2.74 ± 0.038
SAGGSAGGSAMTRDVTIKVPPGVTPEEVFEKLKKENPNVTSYTTTTLPDGTITVTITIEDSSAGGSAGGSAG [r3_371_JUSTAS] | 3.94 ± 0.23 | 4.04 ± 0.12 | 4.05 ± 0.19
SAGGSAGGSAMTVPLDTLTPERLRELLAENPERVVLKSADSVLVLSRDPATGRLTVTSHELRSAGGSAGGSA [r18_75_JUSTAS] | 0.951 ± 0.011 | 1.35 ± 0.014 | 1.22 ± 0.022
SAGGSAGGSAMVLNVPLEELLKLLGVPKEEVSYKKLEDESYELTLPDGTKVKVIVPKEILESAGGSAGGSAG [r3_477_JUSTAS] | 2.81 ± 0.098 | 2.86 ± 0.036 | 2.91 ± 0.13
SAGGSAGGSAMYTISYDPSTGTVTVSTPSGTTTTVPVADGPVTLTVTNPDGTTTTITLEGASAGGSAGGSAG [r3_499_JUSTAS] | 2.56 ± 0.093 | 2.42 ± 0.029 | 2.44 ± 0.068
SAGGSAGGSAMYVKVTFTYPDGSTTTVTTQLDEEEAKKLVEELAPLPVEAKLEIIPEDVPESAGGSAGGSAG [r3_35_JUSTAS] | 0.344 ± 0.073 | 0.249 ± 0.23 | 0.655 ± 0.17
SAGGSAGGSANFKILAVEVQPAGNGIMVRAIIEFPDGWIIKFSFWFRNDGIKINIEIVPLDDSAGGSAGGSA [r18_79_TrROS] | 4.7 ± 0.15 | 5.7 ± 0.12 | 5.68 ± 0.17
SAGGSAGGSANGWVFMIHFNIEQEPVPAEELGMPPGDPGYEDMYVIKIKSISFFWVPAGDFSAGGSAGGSAG [r3_488_TrROS] | 3.27 ± 0.09 | 4.72 ± 0.12 | 4.38 ± 0.085
SAGGSAGGSAPATITSIEVEERTGPDGRTYRVLRVRLADTGEEVEIVVPGMSLEEVLAALASSAGGSAGGSA [r18_345_TrROS_Hall] | 2.86 ± 0.031 | 2.937 ± 0.019 | 2.93 ± 0.082
SAGGSAGGSAPETSLTSTFEFRFEVDGELYAVRIERRVLLSADGDLRVETRIEIIPIPPDVPASAGGSAGGS [r12_927_TrMRF] | 3.72 ± 0.13 | 5.1 ± 0.12 | 4.79 ± 0.11
SAGGSAGGSAPFNINDPNIGEVEIFPGPNAVILIKLPDGGYLVITNNGEDNVSIELVSDDESAGGSAGGSAG [r3_62_TrMRF] | 1.72 ± 0.13 | 0.468 ± 0.16 | 1.15 ± 0.15
SAGGSAGGSAPFQIEDIEVEYHRMPPGMPYYPVRARLPGTGREVEIHMPGMPVEDVLDRIIDSAGGSAGGSA [r18_345_TrROS] | -0.446 ± 0.13 | -0.0225 ± 0.088 | -0.141 ± 0.061
SAGGSAGGSAPKIIVVKPEDIVEAVKKADPNEKVLLFDPETGEIYEITPDKMEFIEKIPPGESAGGSAGGSA [r18_246_TrMRF] | 0.0456 ± 0.13 | 0.884 ± 0.039 | 0.466 ± 0.22
SAGGSAGGSAPMKIDEITDVYPNPNRPKIIIKWRGPNGQPMVFDPENGKWMTPEEALDALKSAGGSAGGSAG [r3_206_TrROS] | 0.571 ± 0.059 | 1.12 ± 0.062 | 0.935 ± 0.046
SAGGSAGGSAPNLKLKIKLDIHVFPDGWLYVSTKIEIENPGKPVEFTIMFRFPIPPNEPAPSAGGSAGGSAG [r3_383_TrROS] | 3.85 ± 0.27 | 5.35 ± 0.15 | 5.16 ± 0.27
SAGGSAGGSAPNQTWVLRITIKFPNGKKRSFQFTFPLDDIKEEIEEEFGIDDIDIEWQPLDSAGGSAGGSAG [r3_220_TrROS] | 2.63 ± 0.061 | 2.77 ± 0.069 | 2.84 ± 0.12
SAGGSAGGSAPPGQEFPFEPVEEESIPIYDPDNGEPPLTISVWKMRMPGGPPMTFIMISPMSAGGSAGGSAG [r3_166_TrROS] | 1.92 ± 0.034 | 2.32 ± 0.043 | 2.17 ± 0.069
SAGGSAGGSAPPGQQLRVRIRIYNPNNGEPKREREFPGMTVDDLKEWAQKNGWRIREIEVDSAGGSAGGSAG [r3_423_TrROS] | 0.559 ± 0.1 | 1.49 ± 0.2 | 1.3 ± 0.095
SAGGSAGGSAPPLKIVIRIEFPDPNGKKQEYEIPADYPLEQVKDNAEEPFPGAKIENIEVVSAGGSAGGSAG [r3_60_TrROS] | 1.02 ± 0.057 | 1.33 ± 0.071 | 1.21 ± 0.049
SAGGSAGGSAPPNVEIKLTMEPYKPPDGNKYYRIPIEVNKKPWQAKEIADWLQPEGFRIEPSAGGSAGGSAG [r3_157_TrROS] | 0.238 ± 0.18 | 0.152 ± 0.41 | 0.151 ± 0.23
